Columns and labels:
recombinant mouse FAP = molecular target: T1, recombinant mouse FAP (Mus musculus, UniProt P97321); experiment: Surface plasmon resonance binding to recombinant mouse FAP; conditions: SPR, 2 μg/ml protein, FIGS. 13 and 14
T1 sequence (P97321 1-761): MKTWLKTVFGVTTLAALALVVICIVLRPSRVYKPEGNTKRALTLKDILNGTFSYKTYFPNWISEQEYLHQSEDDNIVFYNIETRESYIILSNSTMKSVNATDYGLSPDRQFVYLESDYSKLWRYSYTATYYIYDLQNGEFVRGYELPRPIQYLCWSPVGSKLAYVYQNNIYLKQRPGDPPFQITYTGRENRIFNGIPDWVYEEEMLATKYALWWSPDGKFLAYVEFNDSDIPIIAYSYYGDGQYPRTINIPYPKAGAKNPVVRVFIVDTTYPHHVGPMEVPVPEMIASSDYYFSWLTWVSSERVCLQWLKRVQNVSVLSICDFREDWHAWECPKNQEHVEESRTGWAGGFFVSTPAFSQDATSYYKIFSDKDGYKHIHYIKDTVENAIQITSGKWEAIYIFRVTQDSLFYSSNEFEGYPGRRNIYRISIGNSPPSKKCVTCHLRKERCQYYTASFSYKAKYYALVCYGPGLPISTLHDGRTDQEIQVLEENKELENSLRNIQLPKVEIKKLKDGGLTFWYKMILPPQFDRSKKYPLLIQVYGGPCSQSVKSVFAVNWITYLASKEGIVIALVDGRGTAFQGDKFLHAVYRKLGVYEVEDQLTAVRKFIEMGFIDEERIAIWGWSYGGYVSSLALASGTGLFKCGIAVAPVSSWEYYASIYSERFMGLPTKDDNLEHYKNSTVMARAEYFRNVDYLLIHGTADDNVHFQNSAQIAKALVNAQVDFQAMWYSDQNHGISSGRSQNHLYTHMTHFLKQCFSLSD
Protocol: The surface of the CM5 chip was activated with a 1:1 mixture of […] (N-hydroxysuccinimide) and […] (1-Ethyl-3-(3-dimethylaminopropyl) carbodiimide), and 25 μg/ml of anti-mouse IgG (Fc) antibody was immobilized for 400 seconds at a rate of 10 μl/min. The remaining active ester groups were blocked with 1 M ethanolamine. T1.01m, T1.02m and T1.03m were diluted to 2 μg/ml and reacted on the CM5 chip immobilized with the anti-mouse IgG (Fc) antibody. The recombinant mouse FAP was diluted to 200 nM in 1×HBS-EP+buffer solution and diluted by serial dilution. The diluted recombinant mouse FAP was reacted at a rate of 30 μl/min. The association and dissociation times were 180 seconds and 400 seconds, respectively. After the dissociation, stabilization was performed for 60 seconds, and then a regeneration was performed for 30 seconds with a 10 mM glycine pH 1.5 solution at a rate of 30 μl/min.

HEK-Blue IL-12 cells = experiment: Signaling ability in IL-12 recognizing cells (STAT4 inducible SEAP reporter); type: cell-based, human; conditions: serial dilution from 4 nM, 24 hours, FIG. 18
Protocol: The HEK-Blue IL-12 cell line transformed with the IL-12 receptor gene and the STAT4 inducible SEAP reporter gene into HEK293 cells, which are human embryonic kidney fibroblasts, was obtained from Invivogen (San Diego, USA). The HEK-Blue IL-12 cells were maintained in DMEM (GIBCO) containing 10% FBS (GIBCO), 100 μg/ml Normocin and 1×HEK-Blue selection.
Specifically, the HEK-Blue IL-12 cell line, which is an IL-12 recognizing cell, was diluted to 2.8×10^5 cells/ml and dispensed at 180 μl/well. Recombinant human IL-12, T1.01m, T1.02m, T1.03m and T1.12m were suspended at 4 nM and diluted by serial dilution. HEK-Blue IL-12 cells were treated with the diluted recombinant human IL-12, T1.01m, T1.02m, T1.03m and T1.12m. After 24 hours of treatment, the cell supernatant was collected and mixed with QUANTI-Blue Solution (Invivogen) in a 96-well plate. The reporter expression level was measured at 620 nm using a spectrophotometer (Thermo Fisher).

[1] = system: CT26 colorectal cancer with mouse FAP overexpressing NIH-3T3 cells; experiment: Tumor growth inhibition, CT26 co-injected with mouse FAP overexpressing NIH-3T3; type: in vivo, BALB/c mice; conditions: for tumor growth inhibitory ability compared to control: 14th day, control 50 μg T1.24m
Protocol: Specifically, the mouse FAP overexpressing NIH-3T3 cells and the CT26 cells in culture were resuspended in Hanks' Balanced salt solution (HBSS, Gibco) at a concentration of 1×10^6 cells/50 μl, respectively, and the cells were mixed in a 1:1 ratio, and then 100 μl per each mouse was transplanted into the subcutaneous region of the right flank of 6-week-old BALB/c mice using a 1 cc syringe (25G) to obtain an FAP-expressing fibroblast co-injection animal model. The tumor size was measured using a digital vernier caliper by measuring the short axis and long axis of the tumor, and the tumor size was measured twice a week using the calculation formula of (short axis, mm) 2×(long axis, mm)×0.5.
Next, for drug efficacy evaluation, when the size of the tumor reached 100 mm^3, the mice were randomly divided into groups. Each experimental group consisted of 10 animals, and as a control, each 100 μl of 50 μg of T1.24m was intraperitoneally administered three times at an interval of 3 days. In the test group, each 100 μl of 10 μg and 50 μg of T1.02m and 50 μg of T1.01m, respectively, were intraperitoneally administered three times at an interval of 3 days to evaluate the tumor growth inhibitory ability.

[2] = system: FAP-overexpressing mouse colorectal cancer CT26; experiment: Tumor growth inhibition by IL-12 mutation, FAP-overexpressing CT26, single i.v. dose; type: in vivo, BALB/c mice; conditions: 10 μg i.v. once, 15 days after administration, control PBS, FIG. 28
Protocol: In order to evaluate the change in IL-12 activity according to the presence and extent of amino acid mutation, FAP-overexpressing mouse colorectal cancer CT26 was prepared by resuspending in PBS at a concentration of 5×10^5 cells/100 μl, and the tumor growth inhibitory ability was evaluated in a tumor animal model prepared by transplantation of the cells into 5-week-old female BALB/c mice.
Specifically, when the size of the tumor in the model reached 100 mm^3, the mice were randomly divided into groups. 100 μl of phosphate buffered saline (PBS) was administered once via tail vein injection of the control, and each of T1.01m, T1.02m and T1.03m was intravenously administered once at a dose of 10 μg.

[3] = system: FAP-overexpressing CT26 cells; experiment: Tumor growth inhibition, FAP-overexpressing CT26 model, repeated i.p. dosing; type: in vivo, BALB/c mice; conditions: 18 days after administration, control 50 μg T1.24m
Protocol: In order to prepare an mouse FAP-expressing tumor animal model, FAP overexpression was induced in CT26, a mouse colorectal cancer cell line. Specifically, the FAP-overexpressing CT26 cells in culture were resuspended in Hanks' Balanced salt solution (HBSS, Gibco), and then each 100 μl of 1×10^6 tumor cells per each mouse was transplanted into the subcutaneous region of the left dorsal side of 6-week-old BALB/c mice using a 1 cc syringe (25G) to obtain a mouse FAP-expressing colorectal cancer animal model. The tumor size was measured using a digital vernier caliper by measuring the short axis and long axis of the tumor, and the tumor size was measured twice a week using the calculation formula of (short axis, mm) 2×(long axis, mm)×0.5.
Next, for drug efficacy evaluation, when the size of the tumor reached 100 mm^3, the mice were randomly divided into groups. Each experimental group consisted of 8 animals, and as a control, each 100 μl of 50 μg of T1.24m was intraperitoneally administered four times at an interval of 3 days. In the test group, each 100 μl of 10 μg and 100 μg of T1.01m, and 2 μg, 10 μg and 100 μg of T1.02m, respectively, were intraperitoneally administered four times at an interval of 3 days to evaluate the tumor growth inhibitory ability.

B1: T1.02m: K&H bispecific: anti-mu FAP/mu IL-12 mut1, mu IgG2a DANG (seq18, seq19, seq21) (antibody)
heavy: QVQLQQSGAELARPGASVNLSCKASGYTFTNNGINWLKQRTGQGLEWIGEIYPRSTNTLYNEKFKGKATLTADRSSNTAYMELRSLTSEDSAVYFCARTLTAPFAFWGQGTLVTVSAAKTTAPSVYPLAPVCGDTTGSSVTLGCLVKGYFPEPVTLTWNSGSLSSGVHTFPAVLQSDLYTLSSSVTVTSSTWPSQSITCNVAHPASSTKVDKKIEPRGPTIKPCPPCKCPAPNLLGGPSVFIFPPKIKDVLMISLSPIVTCVVVAVSEDDPDVQISWFVNNVEVHTAQTQTHREDYGSTLRVVSALPIQHQDWMSGKEFKCKVNNKDLPAPIERTISKPKGSVRAPQVYVLPPPEEEMTKKQVTLWCMVTDFMPEDIYVEWTNNGKTELNYKNTEPVLDSDGSYFMYSKLRVEKKNWVERNSYSCSVVHEGLHNHHTTKSFSRTPGK
light: QIVLTQSPAIMSASPGEKVTMTCSASSGVNFMHWYQQKSGTSPKRWIFDTSKLASGVPARFSGSGSGTSYSLTISSMEAEDAATYYCQQWSFNPPTFGGGTKLEIKRADAAPTVSIFPPSSEQLTSGGASVVCFLNNFYPKDINVKWKIDGSERQNGVLNSWTDQDSKDSTYSMSSTLTLTKDEYERHNSYTCEATHKTSTSPIVKSFNRNEC
chain: MWELEKDVYVVEVDWTPDAPGETVNLTCDTPEEDDITWTSDQRHGVIGSGKTLTITVKEFLDAGQYTCHKGGETLSHSHLLLHKKENGIWSTEILKNFKNKTFLKCEAPNYSGRFTCSWLVQRNMDLKFNIKSSSSSPDSRAVTCGMASLSAEKVTLDQRDYEKYSVSCQEDVTCPTAEETLPIELALEARQQNKYENYSTSFFIRDIIKPDPPKNLQMKPLKNSQVEVSWEYPDSWSTPHSYFSLKFFVRIQRAKEKMAETEEGCNQKGAFLVEKTSTEVQCKGGNVCVQAQDRYYNSSCSKWACVPCRVRSGGGGSGGGGSGGGGSRVIPVSGPARCLSQSRNLLKTTDDMVKTAREKLKHYSCTAEDIDHEDITRDQTSTLKTCLPLELHKNESCLATRETSSTTRGSCLPPQKTSLMMTLCLGSIYEDLKMYQTEFQAINAALQNHNHQQIILDKGMLVAIDELMQSLNHNGETLRQKPPVGEADPYRVKMKLCILLHAFSTRVVTINRVMGYLSSAGGGGSGGGGSEPRGPTIKPCPPCKCPAPNLLGGPSVFIFPPKIKDVLMISLSPIVTCVVVAVSEDDPDVQISWFVNNVEVHTAQTQTHREDYGSTLRVVSALPIQHQDWMSGKEFKCKVNNKDLPAPIERTISKPKGSVRAPQVYVLPPPEEEMTKKQVTLSCAVTDFMPEDIYVEWTNNGKTELNYKNTEPVLDSDGSYFMVSKLRVEKKNWVERNSYSCSVVHEGLHNHHTTKSFSRTPGK
B1 was tested, and the “Binding to recombinant mouse FAP” value (recombinant mouse FAP) was “may bind to recombinant mouse FAP to specifically target FAP”, the “IL-12 recognition / STAT4 reporter gene expression (620 nm absorbance)” value (HEK-Blue IL-12 cells) was “IL-12 was recognized, and STAT4 expressed a reporter gene by inducing phosphorylation” and the “tumor growth inhibitory ability compared to control” value ([1]; 10 μg i.p. three times at an interval of 3 days) was 93.2%. The “tumor growth inhibitory ability compared to control” value ([1]; 50 μg i.p. three times at an interval of 3 days) was 92.7%, the complete response ([1]; 24th day after administration, FIG. 24) was “subjects in complete response were observed” and the “tumor growth inhibitory ability compared to the control” value [2] was “excellent tumor growth inhibitory ability”. For the same molecule, the “tumor growth inhibitory ability compared to control” value ([3]; 2 μg i.p. four times at an interval of 3 days) was 80.1%, the “tumor growth inhibitory ability compared to control” value ([3]; 10 μg i.p. four times at an interval of 3 days) was 90.5% and the “tumor growth inhibitory ability compared to control” value ([3]; 100 μg i.p. four times at an interval of 3 days) was 89.8%.
